For one substance, fold binding relative to GP-A82 results are on record in article doi:10.1101/630269.

This assay has as its target Dendritic cell-specific ICAM-3 grabbing non-integrin (DC-SIGN, CD209) (human) (UniProt Q9NNX6). As to the kind of experiment: virion-cell binding assay.
Sequence of UniProt Q9NNX6 (Q9NNX6 whole entry): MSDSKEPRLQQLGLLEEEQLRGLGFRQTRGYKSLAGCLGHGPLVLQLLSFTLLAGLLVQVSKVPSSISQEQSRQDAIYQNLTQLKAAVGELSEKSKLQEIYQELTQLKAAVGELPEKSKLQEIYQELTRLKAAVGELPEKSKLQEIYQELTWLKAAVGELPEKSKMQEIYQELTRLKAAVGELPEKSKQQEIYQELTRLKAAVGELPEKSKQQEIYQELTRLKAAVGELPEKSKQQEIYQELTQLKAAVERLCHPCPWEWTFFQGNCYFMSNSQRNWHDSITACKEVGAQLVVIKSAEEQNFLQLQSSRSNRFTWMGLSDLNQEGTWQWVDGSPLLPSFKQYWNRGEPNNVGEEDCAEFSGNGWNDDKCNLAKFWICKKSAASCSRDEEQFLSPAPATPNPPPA

For “EBOV Makona glycoprotein GP-V82 (natural protein)”, the fold binding relative to GP-A82 was found to be 2 fold.
